Positions count from the first letter of the chain named. In names and notes the source's numbering stands.
What was measured:
[1] = target: T1, human CD19 (human, UniProt P15391 20-556); assay: DELFIA competition on Raji cells: unlabeled antibody competes with Eu-labeled anti-CD19 for surface CD19 [lower panel]
T1 construct: also called B-cell surface antigen B4; B-cell antigen CD19
T1 sequence: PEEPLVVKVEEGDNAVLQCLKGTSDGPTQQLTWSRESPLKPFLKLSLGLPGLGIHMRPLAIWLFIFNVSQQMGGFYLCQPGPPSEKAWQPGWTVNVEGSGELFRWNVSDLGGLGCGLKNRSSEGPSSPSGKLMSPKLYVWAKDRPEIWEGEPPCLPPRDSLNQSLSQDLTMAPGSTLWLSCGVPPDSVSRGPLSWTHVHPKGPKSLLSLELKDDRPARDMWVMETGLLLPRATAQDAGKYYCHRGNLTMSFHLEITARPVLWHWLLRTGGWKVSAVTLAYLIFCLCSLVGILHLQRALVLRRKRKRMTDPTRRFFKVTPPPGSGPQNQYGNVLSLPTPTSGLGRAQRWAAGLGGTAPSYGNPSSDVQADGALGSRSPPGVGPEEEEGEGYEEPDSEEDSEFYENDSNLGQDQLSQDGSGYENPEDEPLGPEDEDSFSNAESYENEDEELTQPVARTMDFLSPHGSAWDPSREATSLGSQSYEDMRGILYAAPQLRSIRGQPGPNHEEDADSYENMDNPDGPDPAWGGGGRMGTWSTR

[2] = target: T1, human CD19; assay: DELFIA competition on Raji cells: unlabeled antibody competes with Eu-labeled anti-CD19 for surface CD19 [upper panel]
[3] = target: T1, human CD19; assay: binding affinity relative to the parent H1L1 mAb (Example 5); assay and format not named on the sheet

B1: H3L3 (antibody, V domains shown)
VH: EVQLVESGGGLVQPGRSLRLSCAASGYTFTSYVMHWVRQMPGKGLEWMGYINPYNDGTKYNEKFQGRVTITSDKSTSTAYMELSRLRSDDTAVYYCARGTYYYGSRVFDYWGQGTLVTVSS
VL: DIVMTQSPATLSVSPGERATISCRSSKSLLNSNGNTYLYWFLQKPGQSPQLLIYRMSNLASGVPDRFSGSGSGTDFTLTISRVEAEDVGVYYCMQHLEYPFTFGAGTKLEIK
notes: also called 4G7 H3L3
For B1, the “IC50 (read off the curve)” value [1] was ~20 nM.

B2: H4L3 (antibody, V domains shown)
VH: EVQLQQSGPEVKKPGTSVKVSCKASGYTFTSYVMHWVRQAPGKGLVWVSYINPYNDGTKYNESLKSRVTISSDKSISTAYLQMNSLRAEDTAVYYCARGTYYYGSRVFDYWGQGTLVTVSS
VL: B1 VL
notes: also called 4G7 H4L3
B2: binds [1].

B3: H0L0 (antibody)
heavy chain: EVQLQQSGPELIKPGASVKMSCKASGYTFTSYVMHWVKQKPGQGLEWIGYINPYNDGTKYNEKFKGKATLTSDKSSSTAYMELSSLTSEDSAVYYCARGTYYYGSRVFDYWGQGTTLTVSS
light chain: DIVMTQAAPSIPVTPGESVSISCRSSKSLLNSNGNTYLYWFLQRPGQSPQLLIYRMSNLASGVPDRFSGSGSGTAFTLRISRVEAEDVGVYYCMQHLEYPFTFGAGTKLELK
notes: original 4G7 variable regions; also called 4G7 H0L0
B3 was tested, and the “IC50 (read off the curve)” value [1] was ~8 nM and the “IC50 (read off the curve)” value [2] was ~5 nM.

B4: H1L0 (antibody, V domains shown)
VH: B1 VH with Q13K, R16G, R19K, M40A, M48I, T71S, T76I, R85S, D89E, V93M
VL: B3 light chain
notes: also called 4G7 H1L0
For B4, the “IC50 (read off the curve)” value [2] was ~20 nM.

B5: H0L1 (antibody, V domains shown)
VH: B3 heavy chain
VL: B1 VL with V13L, I21L, L42Q, D75E, R82S, V83L, A85P, V88F, G89A
notes: also called 4G7 H0L1
In the case of B5, the “IC50 (read off the curve)” value [2] is reported as ~3 nM.

B6: H4L0 (antibody, V domains shown)
VH: B2 VH
VL: B3 light chain
notes: also called 4G7 H4L0
For B6, the “IC50 (read off the curve)” value [1] was ~10 nM.

B7: H2L0 (antibody, V domains shown)
VH: QVQLQESGSGLVKPGGSLRLSCAASGYTFTSYVMHWVRQAPGKGLEWMGYINPYNDGTKYNESLKSRVTISSDKSISTAYMELSSLRAEDTAVYYCARGTYYYGSRVFDYWGQGTLVTVSS
VL: B3 light chain
notes: also called 4G7 H2L0
B7: binds [2].

B8: H0L2 (antibody, V domains shown)
VH: B3 heavy chain
VL: DIVMTQSPSSLSASVGDRVTISCRSSKSLLNSNGNTYLYWFQQKPGQSPQLLIYRMSNLASGVPDRFSGSGSGTEFTLTISSLQPEDVAVYYCMQHLEYPFTFGAGTKLEIK
notes: also called 4G7 H0L2
With B8 the “IC50 (read off the curve)” value [2] was ~2 nM.

B9: H0L3 (antibody, V domains shown)
VH: B3 heavy chain
VL: B1 VL
notes: also called 4G7 H0L3
In the case of B9, the “IC50 (read off the curve)” value [2] is reported as ~3 nM.

B10: H3L0 (antibody, V domains shown)
VH: B1 VH
VL: B3 light chain
notes: also called 4G7 H3L0
B10: binds [2].

B11: H1.201 / L1.164 (antibody, V domains shown)
VH: EVQLVESGGGLVKPGGSLKLSCAASGYTFTSYVMHWVRQAPGKGLEWIGYINPYNSGTKYNEKFQGRVTISSDKSISTAYMELSSLRSEDTAMYYCARGTYYYGTRVFDYWGQGTLVTVSS
VL: DIVMTQSPATLSLSPGERATLSCRSSKSLQNANGNTYLYWFQQKPGQSPQLLIYRMSNLNSGVPDRFSGSGSGTEFTLTISSLEPEDFAVYYCMQHLEYPITFGAGTKLEIK
notes: vs H1L1 (Kabat): VH D55S/S100cT; VL L27cQ/S27eA/A55N/F96I; also called 4G7 H1.201_L1.164
B11 gave a Fold change binding [3] of 4.41 fold.

B12: H2L1 (antibody, V domains shown)
VH: B7 VH
VL: B11 VL with Q30L, A32S, N60A, I101F
notes: also called 4G7 H2L1
B12: binds [2].

B13: H1.204 / L1.162 (antibody, V domains shown)
VH: B11 VH with S56E, K59E
VL: B11 VL with G34A
notes: vs H1L1 (Kabat): VH D55E/K58E/S100cT; VL L27cQ/S27eA/G29A/A55N/F96I; also called 4G7 H1.204_L1.162
Binder B13 has a Fold change binding [3] of 4.07 fold.

B14: H1.204 / L1.163 (antibody, V domains shown)
VH: B11 VH with S56E, K59E
VL: B11 VL with G34S
notes: vs H1L1 (Kabat): VH D55E/K58E/S100cT; VL L27cQ/S27eA/G29S/A55N/F96I; also called 4G7 H1.204_L1.163
B14 gave a Fold change binding [3] of 4.73 fold.

B15: H1.202 / L1.163 (antibody, V domains shown)
VH: B11 VH with S56E
VL: B11 VL with G34S
notes: vs H1L1 (Kabat): VH D55E/S100cT; VL L27cQ/S27eA/G29S/A55N/F96I; also called 4G7 H1.202_L1.163
B15 gave a Fold change binding [3] of 3.57 fold.

B16: H1.202 / L1.162 (antibody, V domains shown)
VH: B11 VH with S56E
VL: B11 VL with G34A
notes: vs H1L1 (Kabat): VH D55E/S100cT; VL L27cQ/S27eA/G29A/A55N/F96I; also called 4G7 H1.202_L1.162
B16 was tested, and the Fold change binding [3] was 4.32 fold.

B17: H1.203 / L1.163 (antibody, V domains shown)
VH: B11 VH with K59E
VL: B11 VL with G34S
notes: vs H1L1 (Kabat): VH D55S/K58E/S100cT; VL L27cQ/S27eA/G29S/A55N/F96I; also called 4G7 H1.203_L1.163
B17 gave a Fold change binding [3] of 3.2 fold.

B18: H1L2 (antibody, V domains shown)
VH: B11 VH with S56D, T105S
VL: B8 VL
notes: also called 4G7 H1L2
B18: binds [2].

B19: H1.203 / L1.164 (antibody, V domains shown)
VH: B11 VH with K59E
VL: B11 VL
notes: vs H1L1 (Kabat): VH D55S/K58E/S100cT; VL L27cQ/S27eA/A55N/F96I; also called 4G7 H1.203_L1.164
In the case of B19, the Fold change binding [3] is reported as 5.58 fold.

B20: H1L3 (antibody, V domains shown)
VH: B11 VH with S56D, T105S
VL: B1 VL
notes: also called 4G7 H1L3
For B20, the “IC50 (read off the curve)” value [1] was ~20 nM.

B21: H1.204 / L1.161 (antibody, V domains shown)
VH: B11 VH with S56E, K59E
VL: B11 VL with A32V, G34S
notes: vs H1L1 (Kabat): VH D55E/K58E/S100cT; VL L27cQ/S27eV/G29S/A55N/F96I; also called 4G7 H1.204_L1.161
Work on B21 yielded a Fold change binding [3] of 3.27 fold.

B22: H1.203 / L1.162 (antibody, V domains shown)
VH: B11 VH with K59E
VL: B11 VL with G34A
notes: vs H1L1 (Kabat): VH D55S/K58E/S100cT; VL L27cQ/S27eA/G29A/A55N/F96I; also called 4G7 H1.203_L1.162
B22 gave a Fold change binding [3] of 3.25 fold.

B23: H3L1 (antibody, V domains shown)
VH: B1 VH
VL: B11 VL with Q30L, A32S, N60A, I101F
notes: also called 4G7 H3L1
B23: binds [2].

B24: H2L2 (antibody, V domains shown)
VH: B7 VH
VL: B8 VL
notes: also called 4G7 H2L2
B24: binds [2].

B25: H3L2 (antibody, V domains shown)
VH: B1 VH
VL: B8 VL
notes: also called 4G7 H3L2
B25 was tested, and the “IC50 (read off the curve)” value [1] was ~10 nM.

B26: H2L3 (antibody, V domains shown)
VH: B7 VH
VL: B1 VL
notes: also called 4G7 H2L3
B26: binds [1].
